According to paper PMC5636114 (PLoS ONE, 2017):

Experiments:
[1] = biological target: the molecule itself; test: AUC; sedimentation velocity (42,000 rpm) and equilibrium, 20 C, 20 mM Tris (pH 8.5), 250 mM NaCl, 5 mM DTT (low-salt condition), 0.05 to 1 mg/ml (complex also 8 mg/ml); global fit by SEDPHAT: monomer-dimer self-association (dimer to monomers) or A + B <-> AB hetero-association
[2] = biological target: the molecule itself; test: SEC; Superose 12 analytical gel filtration of nickel-purified protein, 20 mM Tris (pH 7.5), 250 mM NaCl, 5 mM DTT, 0.5 mL/min; migration compared with the C54S/C83A control

Protein	stoichiometry N [1]	binding result [2]
FLASH NTD C54S/C83A/N101A/L104A/N108A, C-terminally hexahistidine-tagged (domain or fragment, human, UniProt Q9UKL3 51-137, looked up, FLASH N-terminal domain, human, residues 51-137, C54S/C83A/N101A/L104A/N108A; also called N101A/L104A/N108A mutant) SRNSLDLYEEILTEEGTAKEATYNDLQVEYGKAQLQMKELMKKFKEIQTQAFSAINEAQSLKKNISALIKTARVEINRKDEEISNLH	~3	–
FLASH NTD C54S/C83A/Y73A/L76A/Y80A, C-terminally hexahistidine-tagged (domain or fragment, human, UniProt Q9UKL3 51-137, looked up, also called Y73A/L76A/Y80A mutant) SRNSLDLYEEILTEEGTAKEATANDAQVEAGKAQLQMKELMKKFKEIQTQNFSLINENQSLKKNISALIKTARVEINRKDEEISNLH	–	binds
FLASH NTD C54S/C83A/K88A/K92A/K95A, C-terminally hexahistidine-tagged (domain or fragment, human, UniProt Q9UKL3 51-137, looked up, also called K88A/K92A/K95A mutant) SRNSLDLYEEILTEEGTAKEATYNDLQVEYGKAQLQMAELMAKFAEIQTQNFSLINENQSLKKNISALIKTARVEINRKDEEISNLH	–	binds
FLASH NTD C54S/C83A/L118A/I119A, C-terminally hexahistidine-tagged (domain or fragment, human, UniProt Q9UKL3 51-137, looked up, FLASH N-terminal domain, human, residues 51-137, L118A/I119A in the background of C54S/C83A; also called FLASH NTD L118A/I119A mutant) SRNSLDLYEEILTEEGTAKEATYNDLQVEYGKAQLQMKELMKKFKEIQTQNFSLINENQSLKKNISAAAKTARVEINRKDEEISNLH	–	binds
FLASH NTD C54S/C83A/R128A/K129A/D130A, C-terminally hexahistidine-tagged (domain or fragment, human, UniProt Q9UKL3 51-137, looked up, also called R128A/K129A/D130A mutant) SRNSLDLYEEILTEEGTAKEATYNDLQVEYGKAQLQMKELMKKFKEIQTQNFSLINENQSLKKNISALIKTARVEINAAAEEISNLH	–	binds
